The record followed here is patent US20060057623A1.

The experiment deals with p300 (UniProt Q09472). As to the kind of experiment: cell-based or functional assay.
p300, sequence (Q09472 2-2414 limits assumed): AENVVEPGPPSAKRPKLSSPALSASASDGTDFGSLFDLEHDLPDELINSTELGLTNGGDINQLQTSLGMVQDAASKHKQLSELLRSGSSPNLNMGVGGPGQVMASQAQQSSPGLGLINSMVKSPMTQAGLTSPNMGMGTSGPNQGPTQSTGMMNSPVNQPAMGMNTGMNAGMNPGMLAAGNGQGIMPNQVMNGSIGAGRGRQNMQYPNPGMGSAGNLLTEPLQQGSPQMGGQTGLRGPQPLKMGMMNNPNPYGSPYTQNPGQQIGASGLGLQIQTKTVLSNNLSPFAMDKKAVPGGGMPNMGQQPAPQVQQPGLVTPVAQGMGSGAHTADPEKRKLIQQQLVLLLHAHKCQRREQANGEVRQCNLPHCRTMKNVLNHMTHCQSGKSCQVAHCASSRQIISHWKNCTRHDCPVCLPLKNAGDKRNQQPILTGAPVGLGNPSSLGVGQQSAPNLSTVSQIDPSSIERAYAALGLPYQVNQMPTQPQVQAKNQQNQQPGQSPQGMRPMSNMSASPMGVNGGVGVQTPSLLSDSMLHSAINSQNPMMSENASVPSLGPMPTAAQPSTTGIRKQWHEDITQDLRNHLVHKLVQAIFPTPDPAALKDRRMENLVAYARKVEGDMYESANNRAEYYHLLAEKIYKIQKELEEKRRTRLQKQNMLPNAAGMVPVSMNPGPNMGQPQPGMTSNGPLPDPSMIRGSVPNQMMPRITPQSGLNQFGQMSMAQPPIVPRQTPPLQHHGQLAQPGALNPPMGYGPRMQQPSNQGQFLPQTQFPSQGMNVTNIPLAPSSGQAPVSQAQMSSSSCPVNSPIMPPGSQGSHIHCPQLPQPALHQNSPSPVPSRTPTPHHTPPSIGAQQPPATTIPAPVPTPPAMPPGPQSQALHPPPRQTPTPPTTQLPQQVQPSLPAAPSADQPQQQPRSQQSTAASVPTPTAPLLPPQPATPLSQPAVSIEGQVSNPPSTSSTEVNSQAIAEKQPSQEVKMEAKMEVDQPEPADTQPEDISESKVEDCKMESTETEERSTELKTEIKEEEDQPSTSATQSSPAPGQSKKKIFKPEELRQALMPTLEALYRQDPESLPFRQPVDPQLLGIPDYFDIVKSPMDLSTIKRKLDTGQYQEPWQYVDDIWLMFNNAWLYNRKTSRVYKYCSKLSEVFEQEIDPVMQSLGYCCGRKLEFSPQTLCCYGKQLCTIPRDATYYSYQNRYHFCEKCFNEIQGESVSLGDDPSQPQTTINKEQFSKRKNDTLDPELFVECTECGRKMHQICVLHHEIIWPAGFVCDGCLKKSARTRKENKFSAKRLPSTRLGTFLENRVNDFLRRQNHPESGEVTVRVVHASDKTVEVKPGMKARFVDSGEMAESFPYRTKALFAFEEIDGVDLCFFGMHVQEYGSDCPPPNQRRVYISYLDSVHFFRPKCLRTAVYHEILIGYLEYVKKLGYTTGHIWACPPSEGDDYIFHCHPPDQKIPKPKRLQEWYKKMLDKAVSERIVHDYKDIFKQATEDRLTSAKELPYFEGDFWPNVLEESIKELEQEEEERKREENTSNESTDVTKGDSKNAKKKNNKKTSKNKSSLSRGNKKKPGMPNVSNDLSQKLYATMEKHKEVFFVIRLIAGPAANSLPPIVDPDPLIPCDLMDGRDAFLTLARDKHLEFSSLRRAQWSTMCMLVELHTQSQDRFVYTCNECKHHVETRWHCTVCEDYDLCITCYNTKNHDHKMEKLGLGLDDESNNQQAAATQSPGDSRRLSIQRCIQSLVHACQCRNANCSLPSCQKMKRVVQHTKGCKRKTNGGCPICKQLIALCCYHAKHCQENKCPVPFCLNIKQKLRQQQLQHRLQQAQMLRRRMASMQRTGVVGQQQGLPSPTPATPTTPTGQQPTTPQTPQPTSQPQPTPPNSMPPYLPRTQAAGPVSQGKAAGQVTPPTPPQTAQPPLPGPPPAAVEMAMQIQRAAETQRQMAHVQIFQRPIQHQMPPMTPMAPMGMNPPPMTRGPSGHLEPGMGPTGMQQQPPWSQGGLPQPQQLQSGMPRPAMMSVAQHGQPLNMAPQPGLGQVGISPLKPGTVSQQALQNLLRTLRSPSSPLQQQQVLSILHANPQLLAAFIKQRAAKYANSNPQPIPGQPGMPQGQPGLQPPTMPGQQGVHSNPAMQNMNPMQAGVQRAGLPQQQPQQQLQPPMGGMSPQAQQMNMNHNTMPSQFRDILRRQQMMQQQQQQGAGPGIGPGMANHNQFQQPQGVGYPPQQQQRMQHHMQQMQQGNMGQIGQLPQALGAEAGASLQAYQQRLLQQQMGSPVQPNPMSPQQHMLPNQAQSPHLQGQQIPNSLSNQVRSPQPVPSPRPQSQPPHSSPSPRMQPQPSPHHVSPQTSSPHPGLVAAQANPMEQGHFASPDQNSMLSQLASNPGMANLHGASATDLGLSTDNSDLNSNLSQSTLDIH

“E1AΔ2-36, a p300 binding-defective mutant” yielded a cyclin D1 promoter CD1 (-1745/+134) luciferase activity with SENP1 (PC-3 cells) of 38%.
